The text below walks through data of US20050171016A1.

For the assay, the target named is CD36 receptor on human dermal microvascular endothelial cells (HDMEC) (human) (UniProt P16671). As to the kind of experiment: cell-based or functional assay.
Sequence of UniProt P16671 (P16671 2-472): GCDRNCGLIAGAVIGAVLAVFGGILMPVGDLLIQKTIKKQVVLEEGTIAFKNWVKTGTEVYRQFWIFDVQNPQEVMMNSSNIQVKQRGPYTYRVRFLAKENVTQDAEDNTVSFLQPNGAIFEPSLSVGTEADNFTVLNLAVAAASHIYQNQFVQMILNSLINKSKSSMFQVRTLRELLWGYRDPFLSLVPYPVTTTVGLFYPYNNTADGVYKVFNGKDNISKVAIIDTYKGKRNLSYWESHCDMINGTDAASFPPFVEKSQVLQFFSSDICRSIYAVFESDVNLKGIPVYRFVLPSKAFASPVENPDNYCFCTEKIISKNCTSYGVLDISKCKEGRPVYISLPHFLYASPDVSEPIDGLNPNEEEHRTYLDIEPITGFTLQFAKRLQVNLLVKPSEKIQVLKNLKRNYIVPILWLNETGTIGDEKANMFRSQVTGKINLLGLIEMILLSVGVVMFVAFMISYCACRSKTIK

For “mouse thrombospondin-2 (TSP-2) (from UniProt Q03350 19-1172)”, the inhibition of HDMEC migration (Transwell, TSP-2 conditioned medium) was found to be 54.2% and the inhibition of HDMEC migration in the presence of 10 ug/ml anti-CD36 antibody (clone FA6-152) was determined as 36.1%.
Consider “human thrombospondin-1 (TSP-1) (from UniProt P07996 19-1170)”, for which the inhibition of HDMEC migration (Transwell, 10 ug/ml TSP-1) was 54% and the inhibition of HDMEC migration in the presence of 10 ug/ml anti-CD36 antibody (clone FA6-152) came to 20.8%.
